Legend:
PA peptide [1] = assay: three sequential binding/encoding cycles with cycle-specific barcodes (BC4, BC5, BC13); NGS of the final product
PA peptide [2] = assay: >

anti-PA antibody (Wako Chemicals)
share of extended recording tags with one barcode (PA peptide [1]): 1.1% | share of extended recording tags with two barcodes (PA peptide [1]): 20.7% | share of extended recording tags with all three cycle barcodes (PA peptide [2]): 78%
